Measurements reported in US20250163127A1 (published 2025).

How the values were obtained:
CD28 = CD28 (human, UniProt P10747); test: cell-based or functional assay
PD-1 = PD-1 (human, UniProt Q15116); test: cell-based or functional assay
CD2 = CD2 (Homo sapiens (Human), UniProt P06729); test: flow cytometry, CHO-CD2 cells
human PD-1 = human PD-1 (human, UniProt Q15116); test: flow cytometry, Jurkat/IL-2/PD-1 cells

Row | Binder | % CD25 Hi FoxP3 + (CD28) [% at 100 nM] | % CD25 Hi FoxP3 + (PD-1) [% at 100 nM] | EC50 (CD2) [nM] | EC50 (human PD-1) [nM]
1 | PD-L1 303-PD-L1 303-ICOSL 2264-ICOSL 2264 (other) FTVTVPKDLYVVEYGSNMTIECKFPVEKQLDLAALIVYWEMEGKDIIQFVHGEEDQKAQHSSYRQRARLLKDQLSLGNAALQITDVKLQDAGVYRCMISYGGGADYKRITVKVNAGGGGSGGGGSGGGGSFTVTVPKDLYVVEYGSNMTIECKFPVEKQLDLAALIVYWEMEGKDIIQFVHGEEDQKAQHSSYRQRARLLKDQLSLGNAALQITDVKLQDAGVYRCMISYGGGADYKRITVKVNAGGGGSGGGGSGGGGSDTQEKEVRAMVGSDVELSCACPEGSRFDLNDVYVYWQTSESKTVVTYHIPQHSSLEYVDSRYRNRALMSPAGMLRGDFSLRLFNVTPQDEQKFHCLVLSRSLGFQEVLSVEVTLHVAANFSVGSGGSGGGGSGGGGSDTQEKEVRAMVGSDVELSCACPEGSRFDLNDVYVYWQTSESKTVVTYHIPQHSSLEYVDSRYRNRALMSPAGMLRGDFSLRLFNVTPQDEQKFHCLVLSRSLGFQEVLSVEVTLHVAANFSVDYKDDDDKHHHHHH | 4.28 | 4.28 | – | –
2 | PD-L1 303-ICOSL 2264-Fc + Fc (Fc fusion) chain 1: FTVTVPKDLYVVEYGSNMTIECKFPVEKQLDLAALIVYWEMEGKDIIQFVHGEEDQKAQHSSYRQRARLLKDQLSLGNAALQITDVKLQDAGVYRCMISYGGGADYKRITVKVNAGSGGGSGGGGSGGGGSDTQEKEVRAMVGSDVELSCACPEGSRFDLNDVYVYWQTSESKTVVTYHIPQHSSLEYVDSRYRNRALMSPAGMLRGDFSLRLFNVTPQDEQKFHCLVLSRSLGFQEVLSVEVTLHVAANFSVGGGGSGSGGGGSEPKSSDKTHTCPPCPAPEAEGAPSVFLFPPKPKDTLMISRTPEVTCVVVDVSHEDPEVKFNWYVDGVEVHNAKTKPREEQYNSTYRVVSVLTVLHQDWLNGKEYKCKVSNKALPAPIEKTISKAKGQPREPQVYTLPPCREEMTKNQVSLWCLVKGFYPSDIAVEWESNGQPENNYKTTPPVLDSDGSFFLYSKLTVDKSRWQQGNVFSCSVMHEALHNHYTQKSLSLSPGK chain 2: HMSSVSAQAAAEPKSSDKTHTCPPCPAPEAEGAPSVFLFPPKPKDTLMISRTPEVTCVVVDVSHEDPEVKFNWYVDGVEVHNAKTKPREEQYNSTYRVVSVLTVLHQDWLNGKEYKCKVSNKALPAPIEKTISKAKGQPREPQVCTLPPSREEMTKNQVSLSCAVKGFYPSDIAVEWESNGQPENNYKTTPPVLDSDGSFFLYSKLTVDKSRWQQGNVFSCSVMHEALHNHYTQKSLSLSPGK | 29.8 | 29.8 | – | –
3 | PD-L1 303-ICOSL 2264-ICOSL 2264-PD-L1 303 (other) FTVTVPKDLYVVEYGSNMTIECKFPVEKQLDLAALIVYWEMEGKDIIQFVHGEEDQKAQHSSYRQRARLLKDQLSLGNAALQITDVKLQDAGVYRCMISYGGGADYKRITVKVNAGGGGSGGGGSGGGGSDTQEKEVRAMVGSDVELSCACPEGSRFDLNDVYVYWQTSESKTVVTYHIPQHSSLEYVDSRYRNRALMSPAGMLRGDFSLRLFNVTPQDEQKFHCLVLSRSLGFQEVLSVEVTLHVAANFSVGGGGSGGGGSGGGGSDTQEKEVRAMVGSDVELSCACPEGSRFDLNDVYVYWQTSESKTVVTYHIPQHSSLEYVDSRYRNRALMSPAGMLRGDFSLRLFNVTPQDEQKFHCLVLSRSLGFQEVLSVEVTLHVAANFSVGSGGSGGGGSGGGGSFTVTVPKDLYVVEYGSNMTIECKFPVEKQLDLAALIVYWEMEGKDIIQFVHGEEDQKAQHSSYRQRARLLKDQLSLGNAALQITDVKLQDAGVYRCMISYGGGADYKRITVKVNADYKDDDDKHHHHHH | 0.89 | 0.89 | – | –
4 | PD-L1 303-ICOSL 2264-Fc (Fc fusion) FTVTVPKDLYVVEYGSNMTIECKFPVEKQLDLAALIVYWEMEGKDIIQFVHGEEDQKAQHSSYRQRARLLKDQLSLGNAALQITDVKLQDAGVYRCMISYGGGADYKRITVKVNAGSGGSGGGGSGGGGSDTQEKEVRAMVGSDVELSCACPEGSRFDLNDVYVYWQTSESKTVVTYHIPQHSSLEYVDSRYRNRALMSPAGMLRGDFSLRLFNVTPQDEQKFHCLVLSRSLGFQEVLSVEVTLHVAANFSVGGGGSGSGGGGSEPKSSDKTHTCPPCPAPEAEGAPSVFLFPPKPKDTLMISRTPEVTCVVVDVSHEDPEVKFNWYVDGVEVHNAKTKPREEQYNSTYRVVSVLTVLHQDWLNGKEYKCKVSNKALPAPIEKTISKAKGQPREPQVYTLPPSRDELTKNQVSLTCLVKGFYPSDIAVEWESNGQPENNYKTTPPVLDSDGSFFLYSKLTVDKSRWQQGNVFSCSVMHEALHNHYTQKSLSLSPG | 6.6 | 6.6 | – | –
5 | PD-L1 303-ICOSL 2264-PD-L1 303 (other) FTVTVPKDLYVVEYGSNMTIECKFPVEKQLDLAALIVYWEMEGKDIIQFVHGEEDQKAQHSSYRQRARLLKDQLSLGNAALQITDVKLQDAGVYRCMISYGGGADYKRITVKVNAGGGGSGGGGSGGGGSDTQEKEVRAMVGSDVELSCACPEGSRFDLNDVYVYWQTSESKTVVTYHIPQHSSLEYVDSRYRNRALMSPAGMLRGDFSLRLFNVTPQDEQKFHCLVLSRSLGFQEVLSVEVTLHVAANFSVGGGGSGGGGSGGGGSFTVTVPKDLYVVEYGSNMTIECKFPVEKQLDLAALIVYWEMEGKDIIQFVHGEEDQKAQHSSYRQRARLLKDQLSLGNAALQITDVKLQDAGVYRCMISYGGGADYKRITVKVNADYKDDDDKHHHHHH | 23.2 | 23.2 | – | –
6 | PD-L1 303-ICOSL 2264 (SEQ ID NO 3496) (other) FTVTVPKDLYVVEYGSNMTIECKFPVEKQLDLAALIVYWEMEGKDIIQFVHGEEDQKAQHSSYRQRARLLKDQLSLGNAALQITDVKLQDAGVYRCMISYGGGADYKRITVKVNAGSGGSGGGGSGGGGSDTQEKEVRAMVGSDVELSCACPEGSRFDLNDVYVYWQTSESKTVVTYHIPQHSSLEYVDSRYRNRALMSPAGMLRGDFSLRLFNVTPQDEQKFHCLVLSRSLGFQEVLSVEVTLHVAANFSVDYKDDDDKHHHHHH | 21.7 | 21.7 | – | –
7 | CD58 3650-PD-L1 303-PD-L1 303-CD58 3650 (other) SQQIYGVVYGNVTFHVPSNVPLKEVLWKKQKDKVAELENSEFRAFSSFKNRVYLDTVSGSLTIYNLTSSDEDEYEMESPNITDTMKFFLYVLESGGGGSGGGGSGGGGSFTVTVPKDLYVVEYGSNMTIECKFPVEKQLDLAALIVYWEMEGKDIIQFVHGEEDQKAQHSSYRQRARLLKDQLSLGNAALQITDVKLQDAGVYRCMISYGGGADYKRITVKVNAGGGGSGGGGSGGGGSFTVTVPKDLYVVEYGSNMTIECKFPVEKQLDLAALIVYWEMEGKDIIQFVHGEEDQKAQHSSYRQRARLLKDQLSLGNAALQITDVKLQDAGVYRCMISYGGGADYKRITVKVNAGSGGSGGGGSGGGGSSQQIYGVVYGNVTFHVPSNVPLKEVLWKKQKDKVAELENSEFRAFSSFKNRVYLDTVSGSLTIYNLTSSDEDEYEMESPNITDTMKFFLYVLESGSGGGGSDYKDDDDKHHHHHH | – | – | 14.4 | 6.6
8 | PD-L1 303-ICOSL 2264-COMP (other) FTVTVPKDLYVVEYGSNMTIECKFPVEKQLDLAALIVYWEMEGKDIIQFVHGEEDQKAQHSSYRQRARLLKDQLSLGNAALQITDVKLQDAGVYRCMISYGGGADYKRITVKVNAGGGGSGGGGSGGGGSDTQEKEVRAMVGSDVELSCACPEGSRFDLNDVYVYWQTSESKTVVTYHIPQHSSLEYVDSRYRNRALMSPAGMLRGDFSLRLFNVTPQDEQKFHCLVLSRSLGFQEVLSVEVTLHVAANFSVGGGGSGGGGSGGGGSDLGPQMLRELQETNAALQDVRELLRQQVREITFLKNTVMECDACGDYKDDDDKHHHHHH | 21 | 21 | – | –
